According to article doi:10.1101/196097:
pKd: −log10 of the molar value.

Columns and labels:
[1] = biological target: Calcium-independent phospholipase A2β, short variant (SH-iPLA2β), wild type (Chinese hamster (cloned from CHO cells)); test: AUC
[2] = biological target: Fluorescein (FAM)-labeled calmodulin T34C (UniProt P0DP23); test: fluorescence polarisation
[3] = biological target: FAM-labeled synthetic peptide corresponding to the 1-9-14 motif of iPLA2β; test: fluorescence polarisation
[4] = biological target: FAM-labeled synthetic peptide corresponding to the IQ motif of iPLA2β; test: fluorescence polarisation

Substance | stoichiometry N [1] | pKd [2] | pKd [3] | pKd [4]
Calcium-independent phospholipase A2β, short variant (SH-iPLA2β), wild type (from UniProt A0A3L7I2I8 1-807) (enzyme) | 2 | 6.95 |  | 
Calmodulin (from UniProt P0DP23 1-149) (natural protein) |  |  | 5.60 | 5.23
iPLA2β W695E mutant (from UniProt A0A3L7I2I8 1-807) (enzyme) |  | < 5.85 |  | 
